This experiment deals with SARS-CoV-2 Spike receptor binding domain (RBD) (SARS-CoV-2, ancestral (Wuhan-Hu-1) …, UniProt P0DTC2). In words: SPR. The settings on record: both partners purified.

B1: nanobody Nb6 (class I synthetic nanobody) (VHH)
VHH: QVQLVESGGGLVQAGGSLRLSCAASGIIFGRNAMGWYRQAPGKERELVAGITRRGSITYYADSVKGRFTISRDNAKNTVYLQMNSLKPEDTAVYYCAADPASPAPGDYWGQGTQVTVSS
What is called Kd is the constant that tells how readily two partners part at equilibrium. A high value points to lower affinity. B1 had a Kd of 41 nM.

The values above are taken from paper PMC7857409 (Science (New York, N.y.), 2020).
